The source of these data is paper PMC9259969, “Biophysical Screening Pipeline for Cryo-EM Grid Preparation of Membrane Proteins” (Frontiers in Molecular Biosciences, 2022).

Data set [1] concerns the molecule itself. In words: mass photometry; 150 nM TolC in the presence of 0.003% DDM; controls with 0.03% and 0.003% DDM without protein.
Another data set deals with Q9Y6I3. In words: mass photometry; hENTH at 100 nM in the presence of 200 µM PI(4,5)P2; Refeyn OneMP; control: buffer with 200 µM PI(4,5)P2. The settings on record: other: mass photometry.

B1: TolC (natural protein, Escherichia coli, UniProt P02930 23-493, looked up)
chain: ENLMQVYQQARLSNPELRKSAADRDAAFEKINEARSPLLPQLGLGADYTYSNGYRDANGINSNATSASLQLTQSIFDMSKWRALTLQEKAAGIQDVTYQTDQQTLILNTATAYFNVLNAIDVLSYTQAQKEAIYRQLDQTTQRFNVGLVAITDVQNARAQYDTVLANEVTARNNLDNAVEQLRQITGNYYPELAALNVENFKTDKPQPVNALLKEAEKRNLSLLQARLSQDLAREQIRQAQDGHLPTLDLTASTGISDTSYSGSKTRGAAGTQYDDSNMGQNKVGLSFSLPIYQGGMVNSQVKQAQYNFVGASEQLESAHRSVVQTVRSSFNNINASISSINAYKQAVVSAQSSLDAMEAGYSVGTRTIVDVLDATTTLYNAKQELANARYNYLINQLNIKSALGTLNEQDLLALNNALSKPVSTNPENVAPQTPEQNAIADGYAPDSPAPVVQQTSARTTTSNGHNPFRN
notes: TolC, outer membrane protein of Escherichia coli; molecular weight of 161.7 kDa printed for the trimeric state; The protomer is written here; In DDM micelles in the assays; also called integral membrane protein TolC; source: E. coli C43(DE3)ΔAcrAB, solubilised in DDM, purified (HiTrap HP with imidazole elution, SEC)
As to B1, the binding result in data set [1] is listed as “binds”.

B2: Recombinant human ENTH domain from epsin-1 (hENTH) (protein)
chain: NIVHNYSEAEIKVREATSNDPWGPSSSLMSEIADLTYNVVAFSEIMSMIWKRLNDHGKNWRHVYKAMTLMEYLIKTGSERVSQQCKENMYAVQTLKDFQYVDRDGKDQGVNVREKAKQLVALLRDEDRLREER
Regarding B2, the “N with PI(4,5)P2” value in the data set with Q9Y6I3 is “corresponding to a hexamer of hENTH in the presence of 200 µM PI(4,5)P2”.
